Assay results reported in PMC3166428.

Target: GST-TRIP8b(1b-2) full
Experiment: pull-down

In the case of “clathrin (from UniProt P11442 1-1675; P08081 1-248) (complex)”, the fraction of loaded clathrin in the eluate (fraction of loaded clathrin) is reported as > 0.67.
